This note sets out measurements from PMC6713926.

“And” between values parts separate entries of the source, which are not always exact repeats. Equal entries are not always repeated.

The assay has as its target Biotinylated C3b (human) (UniProt P01024). The experiment in a line: BLI; biotinylated C3b on streptavidin sensors; FPht variants at 100 to 1.56 μg/mL, 60 s steps; 30°C; 20 mM MES pH 6.0, 100 mM NaCl, 0.05% Tween, 1 mg/mL BSA; steady state 1:1 fit (for WT also kinetic analysis). (In general: In BLI a coated tip is dipped into the sample, and binding shifts an interference pattern.)

Sequence of Biotinylated C3b (human) (P01024 23-667, chain 1 of 2): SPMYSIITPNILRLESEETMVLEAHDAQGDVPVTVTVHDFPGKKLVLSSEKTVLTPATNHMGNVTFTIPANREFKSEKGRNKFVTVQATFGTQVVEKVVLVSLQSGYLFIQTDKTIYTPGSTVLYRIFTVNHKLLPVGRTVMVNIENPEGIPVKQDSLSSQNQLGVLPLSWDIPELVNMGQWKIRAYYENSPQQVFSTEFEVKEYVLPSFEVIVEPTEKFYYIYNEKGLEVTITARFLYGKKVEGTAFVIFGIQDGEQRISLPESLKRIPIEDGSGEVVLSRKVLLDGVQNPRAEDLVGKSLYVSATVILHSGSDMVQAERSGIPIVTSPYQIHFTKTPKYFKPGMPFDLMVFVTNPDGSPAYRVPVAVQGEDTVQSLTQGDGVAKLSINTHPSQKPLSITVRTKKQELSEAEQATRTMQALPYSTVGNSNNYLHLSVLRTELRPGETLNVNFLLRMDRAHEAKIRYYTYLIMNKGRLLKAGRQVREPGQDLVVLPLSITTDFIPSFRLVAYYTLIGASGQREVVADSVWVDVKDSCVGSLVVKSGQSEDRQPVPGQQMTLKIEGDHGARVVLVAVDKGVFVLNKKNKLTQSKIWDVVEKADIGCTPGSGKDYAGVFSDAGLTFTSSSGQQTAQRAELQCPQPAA
Sequence of Biotinylated C3b (human) (P01024 749-1663, chain 2 of 2): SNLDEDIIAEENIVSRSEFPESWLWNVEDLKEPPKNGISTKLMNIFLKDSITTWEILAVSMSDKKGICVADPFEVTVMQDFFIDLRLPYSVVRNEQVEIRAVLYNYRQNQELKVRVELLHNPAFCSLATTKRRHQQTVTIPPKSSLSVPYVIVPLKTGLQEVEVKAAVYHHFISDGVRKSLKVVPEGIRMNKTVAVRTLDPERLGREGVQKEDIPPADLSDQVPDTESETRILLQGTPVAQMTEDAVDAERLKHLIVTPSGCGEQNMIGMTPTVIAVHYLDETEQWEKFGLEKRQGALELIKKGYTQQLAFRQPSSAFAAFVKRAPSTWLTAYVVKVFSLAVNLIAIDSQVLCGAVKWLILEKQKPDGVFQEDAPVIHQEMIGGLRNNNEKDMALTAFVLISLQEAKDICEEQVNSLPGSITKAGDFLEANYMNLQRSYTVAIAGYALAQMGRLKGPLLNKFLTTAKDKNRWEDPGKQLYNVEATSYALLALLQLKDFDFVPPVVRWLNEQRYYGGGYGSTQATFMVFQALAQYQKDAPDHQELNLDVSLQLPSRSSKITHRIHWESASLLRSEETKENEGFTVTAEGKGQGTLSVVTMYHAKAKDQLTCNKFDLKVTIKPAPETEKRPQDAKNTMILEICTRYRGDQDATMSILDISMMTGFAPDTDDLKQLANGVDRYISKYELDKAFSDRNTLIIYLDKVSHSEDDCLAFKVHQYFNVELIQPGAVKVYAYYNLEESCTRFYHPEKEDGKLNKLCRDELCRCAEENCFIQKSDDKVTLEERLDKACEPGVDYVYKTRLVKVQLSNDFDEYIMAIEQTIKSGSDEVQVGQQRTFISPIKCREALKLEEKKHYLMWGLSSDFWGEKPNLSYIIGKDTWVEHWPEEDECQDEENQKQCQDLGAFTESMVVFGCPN

One may read the Kd as the concentration at which binding is half-saturated. Low values mean higher affinity, high ones lower affinity. For the substance “FPht, monomeric FP head-tail protein from co-expression of FPh and FPt (complex)”, the Kd was 320 nM and 350 nM.
